The test system of the data set is Zymoseptoria tritici (SEPTTR-184). Briefly: Efficacy of target gene fragments (MgCytB dsRNA tiles) on wheat plants, SEPTTR-184. The class given is in vivo. More on the design: Average of 2 trials SEPTTR-184 3DC / Average of 2 trials SEPTTR-184 1DP: scale not given here. The settings on record: for ED50 SEPTTR-184 1DP / ED80 SEPTTR-184 1DP / Disease Control All Rates Average SEPTTR-184 1DP / Sum of Disease Control SEPTTR-184 1DP / Average of 2 trials SEPTTR-184 1DP: 1DP (preventative); for Disease Control All Rates Average SEPTTR-184 1DP / Disease Control All Rates Average SEPTTR-184 3DC: average of 200, 50, 12.5, 3.125 ppm; for Sum of Disease Control SEPTTR-184 1DP / Sum of Disease Control SEPTTR-184 3DC: sum over 200, 50, 12.5, 3.125 ppm; for ED50 SEPTTR-184 3DC / ED80 SEPTTR-184 3DC / Disease Control All Rates Average SEPTTR-184 3DC / Sum of Disease Control SEPTTR-184 3DC / Average of 2 trials SEPTTR-184 3DC: 3DC (curative). As to the method: The 200 ppm rate for each treatment was prepared by adding the calculated volume of the corresponding dsRNA solution in TE buffer. Lower rates were prepared as 4-fold dilutions (50 ppm, 12.5 ppm, and 3.12 ppm). A non-target dsRNA control (YFP), a TE/phosphate buffer control, disease pressure control, and clean plant control were included.
These plants were inoculated with an aqueous spore suspension of Zymoseptoria tritici either prior to or after fungicidal treatments. After inoculation the plants were kept in 100% relative humidity to allow spores to germinate and infect the leaves. The plants were then transferred to a greenhouse until disease developed.

B1: MgCytB-T6: 258 bp dsRNA of Zymoseptoria CytB region T6, location 775-1032 (SEQ ID NO:9) (nucleic acid, listed as Zymoseptoria tritici)
chain: GTTATGGCTAACCCTATGCAAACTCCACCTGCTATAGTGCCTGAATGATATTTATTACCTTTCTACGCTATACTAAGATCAATACCTAACAAACTATTAGGTGTGATCGCAATGTTTTCTGCTATATTGATTATAATGATAATGCCAATTACCGATTTAGGTAGAAGTAGAGGATTACAGTTTAGACCTTTAAGCAAGATCACATTTTACATATTTGTTGCTAACTTCTTAGTATTAATGCAATTAGGTGCTAATCAC
modifications: complementary strand of dsRNA
Regarding B1, the “ED50 SEPTTR-184 1DP” value was under 3.125 ppm, the “ED80 SEPTTR-184 1DP” value is over 200 ppm, the “Disease Control All Rates Average SEPTTR-184 1DP” value came out at 73% and the “Sum of Disease Control SEPTTR-184 1DP” value was found to be 293%. Further, the “ED50 SEPTTR-184 3DC” value is recorded as under 3.125 ppm, the “ED80 SEPTTR-184 3DC” value is over 200 ppm, the “Disease Control All Rates Average SEPTTR-184 3DC” value is 60% and the “Sum of Disease Control SEPTTR-184 3DC” value came to 239%. For the setting “3.125 ppm”, the “Average of 2 trials SEPTTR-184 1DP” value was determined as 72 and the “Average of 2 trials SEPTTR-184 3DC” value is 53. Where the note is “12.5 ppm”, the “Average of 2 trials SEPTTR-184 1DP” value stood at 77 and the “Average of 2 trials SEPTTR-184 3DC” value came to 63. Further, for the setting “50 ppm”, the “Average of 2 trials SEPTTR-184 1DP” value amounted to 72 and the “Average of 2 trials SEPTTR-184 3DC” value was determined as 64. In addition, where the note is “200 ppm”, the “Average of 2 trials SEPTTR-184 1DP” value is 72 and the “Average of 2 trials SEPTTR-184 3DC” value was 59.

B2: MgCytB-T7: 221 bp dsRNA of Zymoseptoria CytB region T7, location 947-1167 (SEQ ID NO:10) (nucleic acid, listed as Zymoseptoria tritici)
chain: GATTACAGTTTAGACCTTTAAGCAAGATCACATTTTACATATTTGTTGCTAACTTCTTAGTATTAATGCAATTAGGTGCTAATCACGTTGAGTCACCATTTATAGAATTTGGGCAAATTAGTACAGTACTGTACTTTTCACATTTCTTAATCATAGTGCCTCTAGTAAGCTTAATCGAGAATACTTTAGTGGATATGCACTTAAACAACACAATAACGTAA
modifications: complementary strand of dsRNA
Consider B2, for which the “ED50 SEPTTR-184 1DP” value is under 3.125 ppm, the “ED80 SEPTTR-184 1DP” value is recorded as over 200 ppm, the “Disease Control All Rates Average SEPTTR-184 1DP” value is on record as 69% and the “Sum of Disease Control SEPTTR-184 1DP” value came to 275%. Further, the “ED50 SEPTTR-184 3DC” value is under 3.125 ppm, the “ED80 SEPTTR-184 3DC” value is over 200 ppm, the “Disease Control All Rates Average SEPTTR-184 3DC” value was 74% and the “Sum of Disease Control SEPTTR-184 3DC” value was determined as 297%. Also, under “3.125 ppm”, the “Average of 2 trials SEPTTR-184 1DP” value is reported as 60 and the “Average of 2 trials SEPTTR-184 3DC” value worked out at 76. Under “12.5 ppm”, the “Average of 2 trials SEPTTR-184 1DP” value is listed as 69 and the “Average of 2 trials SEPTTR-184 3DC” value came to 72. Under “50 ppm”, the “Average of 2 trials SEPTTR-184 1DP” value was determined as 71 and the “Average of 2 trials SEPTTR-184 3DC” value stood at 73. For the setting “200 ppm”, the “Average of 2 trials SEPTTR-184 1DP” value is listed as 75 and the “Average of 2 trials SEPTTR-184 3DC” value turned out to be 76.

Values taken from patent publication US10392620B2, “Cytochrome B (CYTB) nucleic acid molecules that control pathogens” (Dow AgroSciences LLC, priority 2016, dated 2019).
